T1: Duffy Antigen Receptor for Chemokines (DARC) (human, UniProt Q16570 1-336)
T1 construct: whole, on cells; also called red blood cells expressing DARC
T1 sequence (looked up): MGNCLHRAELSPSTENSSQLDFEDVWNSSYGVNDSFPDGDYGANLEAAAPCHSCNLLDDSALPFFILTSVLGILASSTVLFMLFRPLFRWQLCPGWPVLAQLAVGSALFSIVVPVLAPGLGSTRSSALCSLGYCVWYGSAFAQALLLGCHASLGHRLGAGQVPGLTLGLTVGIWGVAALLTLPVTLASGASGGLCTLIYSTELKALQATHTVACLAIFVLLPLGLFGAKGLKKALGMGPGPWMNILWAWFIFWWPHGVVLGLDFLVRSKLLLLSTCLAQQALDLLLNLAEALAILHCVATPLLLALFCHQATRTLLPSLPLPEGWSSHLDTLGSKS

B1: peptide 2(1-15)[MCP-1] (peptide)
peptide: SYRRITSSKCPKEAV
notes: also called Pep2[MCP1]; Pep2(1-15)[MCP1]
B2: Pep2(1-15)[SDF1] (peptide)
peptide: HLKILNTPNCALQIV
notes: also called Pep2[SDF1]; peptide 2(1-15)[SDF1α]
B3: Pep2(1-14)[MIP1α] (peptide)
peptide: DYFETSSQCSKPGV
notes: also called Pep2[MIP1α]; peptide 2(1-15)[MIP1-α]

molecular target: T1, Duffy Antigen Receptor for Chemokines …; assay: DARC binding, Table 18

Binder	DARC binding [µM]
B1	0.1
B2	19
SYRRITSSKC	22

molecular target: T1, Duffy Antigen Receptor for Chemokines …; assay: ka for red blood cells divided by ka for THP-1 cells

Binder	Duffy selectivity
B1	0.18
B2	< 1
B3	> 100

Source: patent US7238711 (CAMBRIDGE ENTERPRISE, dated 2007)
